Test results published in patent US20140242081A1.

Tests used:
[1] = target: human CEA on cells (CHO/huCEA, ASPC-1, LS1034) (human) (UniProt P06731); test: cell-based or functional assay
[2] = target: human CD3 on T cells (human) (UniProt P07766); test: cell-based or functional assay
human CD3 (human) = human CD3 (human) (UniProt P07766); test: method not stated; KD of the CD3 binding arm, used to calculate fractional receptor occupancy

Sequence of UniProt P06731 (P06731 35-702): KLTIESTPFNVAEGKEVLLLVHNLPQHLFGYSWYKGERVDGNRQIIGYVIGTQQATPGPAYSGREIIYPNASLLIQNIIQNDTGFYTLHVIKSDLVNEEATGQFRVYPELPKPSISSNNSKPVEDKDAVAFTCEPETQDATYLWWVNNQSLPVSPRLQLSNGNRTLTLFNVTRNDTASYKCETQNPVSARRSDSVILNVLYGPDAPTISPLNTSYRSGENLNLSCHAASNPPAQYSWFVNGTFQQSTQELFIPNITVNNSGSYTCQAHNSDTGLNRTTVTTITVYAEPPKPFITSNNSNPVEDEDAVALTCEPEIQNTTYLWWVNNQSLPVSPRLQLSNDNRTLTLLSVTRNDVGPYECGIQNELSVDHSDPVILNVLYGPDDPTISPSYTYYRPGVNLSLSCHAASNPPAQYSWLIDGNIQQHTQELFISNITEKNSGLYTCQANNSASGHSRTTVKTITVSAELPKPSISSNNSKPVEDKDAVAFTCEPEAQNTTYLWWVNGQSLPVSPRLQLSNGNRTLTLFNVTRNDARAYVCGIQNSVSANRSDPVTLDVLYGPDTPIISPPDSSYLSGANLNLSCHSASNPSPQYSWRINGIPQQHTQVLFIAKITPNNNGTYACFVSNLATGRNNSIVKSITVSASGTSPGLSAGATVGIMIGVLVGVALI

MEDI-565 (bispecific antibody)
EC20 of specific lysis of ASPC-1 cells (PBMC with CD3ε, E:T 5:1, 48 h), mean of 10 donors [1]: 0.097 ng/mL
EC20 of specific lysis, C/P (CHO/huCEA cocultured with PBMC without CD14), mean [1]: 0.371 ng/mL
EC50 of specific lysis of ASPC-1 cells (PBMC with CD3ε, E:T 5:1, 48 h), mean of 10 donors [1]: 2.03 ng/mL
EC50 of specific lysis, A/P (ASPC-1 cocultured with PBMC without CD14), mean [1]: 0.971 ng/mL
mean EC20 of specific lysis of ASPC-1 cells (PBMC with CD3ε, E:T 5:1, 48 h; Example 1, 11 donors) [1]: 0.05 ng/mL
EC20 of CD25 de novo expression, C/P (PBMC without CD14 cocultured with CHO/huCEA), mean [2]: 0.217 ng/mL
EC20 of CD25 upregulation on T cells (ASPC-1 target cells, PBMC with CD3ε, 48 h), mean of 10 donors [2]: 0.376 ng/mL
EC20 of CD69 de novo expression, A/3 (PBMC with CD3ε cocultured with ASPC-1), mean [2]: 0.105 ng/mL
EC20 of CD69 de novo expression, C/P (PBMC without CD14 cocultured with CHO/huCEA), mean [2]: 0.134 ng/mL
EC20 of CD69 upregulation on T cells (ASPC-1 target cells, PBMC with CD3ε, 48 h), mean of 5 donors [2]: 0.441 ng/mL
EC20 of IFNγ release (ASPC-1 target cells, PBMC with CD3ε, 48 h), mean [2]: 1.56 ng/mL
EC20 of IL2 release (ASPC-1 target cells, PBMC with CD3ε, 48 h), mean [2]: 0.732 ng/mL
EC20 of IL6 release (ASPC-1 target cells, PBMC with CD3ε, 48 h), mean [2]: 1.83 ng/mL
EC20 of IL10 release (ASPC-1 target cells, PBMC with CD3ε, 48 h), mean [2]: 0.686 ng/mL
EC20 of TNFα release (ASPC-1 target cells, PBMC with CD3ε, 48 h), mean [2]: 1.29 ng/mL
EC50 of CD25 upregulation on T cells (ASPC-1 target cells, PBMC with CD3ε, 48 h), mean of 10 donors [2]: 4.65 ng/mL
EC50 of CD69 de novo expression, A/3 (PBMC with CD3ε cocultured with ASPC-1), mean [2]: 1.26 ng/mL
EC50 of CD69 de novo expression, C/3 (PBMC with CD3ε cocultured with CHO/huCEA), one value [2]: 1.34 ng/mL
EC50 of CD69 upregulation on T cells (ASPC-1 target cells, PBMC with CD3ε, 48 h), mean of 5 donors [2]: 13.8 ng/mL
EC50 of IFNγ release (ASPC-1 target cells, PBMC with CD3ε, 48 h), mean [2]: 3.29 ng/mL
EC50 of IL2 release (ASPC-1 target cells, PBMC with CD3ε, 48 h), mean [2]: 2.14 ng/mL
EC50 of IL6 release (ASPC-1 target cells, PBMC with CD3ε, 48 h), mean [2]: 4.04 ng/mL
EC50 of IL10 release (ASPC-1 target cells, PBMC with CD3ε, 48 h), mean [2]: 3.92 ng/mL
EC50 of TNFα release (ASPC-1 target cells, PBMC with CD3ε, 48 h), mean [2]: 6.56 ng/mL
mean EC20 of CD25 upregulation (PBMC with CD3ε cocultured with CHO/huCEA, E:T 10:1, 72 h) [2]: 0.269 ng/mL
Kd (human CD3 (human)): 307 nM
